Assay [1] has as its target KDR expressed on the surface of HUVEC (human, UniProt P35968 20-1356). Nature of the assay: cell-based or functional assay.
In assay [2] the target is T1, soluble fusion protein KDR-AP (human, UniProt P35968 20-764).
T1 construct: extracellular domain; Expressed in NIH 3T3 cells; also called KDR-alkaline phosphatase fusion protein; immobilized KDR; not shown: human placental alkaline phosphatase (AP) of the vector AP-Tag
Nature of the assay: direct binding ELISA on KDR-coated plate, detected by anti-E tag antibody-HRP.

In assay [3] the target is T1, soluble fusion protein KDR-AP. The experiment in a line: BIAcore, KDR-AP immobilized (Table 2). As to the method:
Sensorgrams were obtained at each concentration and were evaluated using a program, BIA Evaluation 2.0, to determine the rate constants kon and koff. Kd was calculated as the ratio of rate constants koff/kon.
*All rates are determined by surface plasmon resonance using BIAcore system and are mean of at least three separate determinations.

T1 sequence (P35968 20-764): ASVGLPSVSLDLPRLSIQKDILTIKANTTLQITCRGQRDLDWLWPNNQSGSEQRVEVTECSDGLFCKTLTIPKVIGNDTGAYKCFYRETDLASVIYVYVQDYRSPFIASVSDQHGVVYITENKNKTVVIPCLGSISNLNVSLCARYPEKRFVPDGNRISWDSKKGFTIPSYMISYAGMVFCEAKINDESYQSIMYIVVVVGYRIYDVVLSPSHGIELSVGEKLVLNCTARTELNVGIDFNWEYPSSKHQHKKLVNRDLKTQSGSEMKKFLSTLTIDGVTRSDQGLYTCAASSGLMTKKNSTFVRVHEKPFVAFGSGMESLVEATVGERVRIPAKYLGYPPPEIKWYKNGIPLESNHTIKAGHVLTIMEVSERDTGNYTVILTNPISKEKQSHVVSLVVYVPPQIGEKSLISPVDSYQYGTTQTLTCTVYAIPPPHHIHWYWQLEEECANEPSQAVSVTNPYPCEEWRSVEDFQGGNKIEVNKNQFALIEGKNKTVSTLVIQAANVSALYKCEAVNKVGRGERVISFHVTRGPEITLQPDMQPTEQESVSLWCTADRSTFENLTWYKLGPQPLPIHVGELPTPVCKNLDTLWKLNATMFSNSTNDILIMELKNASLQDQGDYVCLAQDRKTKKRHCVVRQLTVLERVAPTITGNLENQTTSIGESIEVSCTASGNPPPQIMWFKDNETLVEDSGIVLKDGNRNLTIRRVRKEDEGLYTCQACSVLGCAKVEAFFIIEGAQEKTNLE
KDR expressed on the surface of HUVEC, sequence (P35968 20-1356): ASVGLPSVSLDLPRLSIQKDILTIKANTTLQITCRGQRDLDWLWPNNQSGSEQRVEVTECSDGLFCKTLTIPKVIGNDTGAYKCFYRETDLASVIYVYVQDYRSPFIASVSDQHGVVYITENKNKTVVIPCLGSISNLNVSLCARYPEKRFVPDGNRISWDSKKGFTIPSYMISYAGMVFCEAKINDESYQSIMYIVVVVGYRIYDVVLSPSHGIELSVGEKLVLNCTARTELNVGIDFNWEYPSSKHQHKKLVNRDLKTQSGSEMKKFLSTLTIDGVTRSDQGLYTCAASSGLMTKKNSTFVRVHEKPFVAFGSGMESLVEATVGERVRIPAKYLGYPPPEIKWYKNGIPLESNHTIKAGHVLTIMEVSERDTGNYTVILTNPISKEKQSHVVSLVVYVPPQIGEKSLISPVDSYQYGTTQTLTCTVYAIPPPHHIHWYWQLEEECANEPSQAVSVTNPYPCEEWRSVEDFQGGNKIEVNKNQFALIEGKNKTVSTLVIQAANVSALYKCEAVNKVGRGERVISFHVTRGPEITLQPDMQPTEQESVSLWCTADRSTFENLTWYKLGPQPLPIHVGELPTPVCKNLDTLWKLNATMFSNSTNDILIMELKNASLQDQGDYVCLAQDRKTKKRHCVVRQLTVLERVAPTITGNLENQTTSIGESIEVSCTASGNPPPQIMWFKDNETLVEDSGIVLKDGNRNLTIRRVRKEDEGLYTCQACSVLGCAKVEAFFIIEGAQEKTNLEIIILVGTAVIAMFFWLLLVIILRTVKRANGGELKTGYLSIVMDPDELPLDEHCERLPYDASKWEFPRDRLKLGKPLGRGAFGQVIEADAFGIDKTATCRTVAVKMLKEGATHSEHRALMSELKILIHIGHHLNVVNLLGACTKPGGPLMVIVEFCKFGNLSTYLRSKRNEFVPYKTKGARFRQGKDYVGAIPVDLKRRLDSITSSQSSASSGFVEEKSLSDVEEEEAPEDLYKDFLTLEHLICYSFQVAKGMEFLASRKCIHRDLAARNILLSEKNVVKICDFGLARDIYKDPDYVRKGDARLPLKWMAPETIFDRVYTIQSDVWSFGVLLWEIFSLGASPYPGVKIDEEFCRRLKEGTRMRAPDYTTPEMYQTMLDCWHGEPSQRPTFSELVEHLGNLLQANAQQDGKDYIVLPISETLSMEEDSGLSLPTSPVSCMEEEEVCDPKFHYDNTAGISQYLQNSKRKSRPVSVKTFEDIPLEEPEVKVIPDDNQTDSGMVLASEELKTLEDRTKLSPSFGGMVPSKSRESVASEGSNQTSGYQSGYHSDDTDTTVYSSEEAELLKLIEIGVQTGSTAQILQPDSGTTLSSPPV

B1: scFv p1C11 (scFv)
chain: QVKLQQSGAELVGSGASVKLSCTTSGFNIKDFYMHWVKQRPEQGLEWIGWIDPENGDSDYAPKFQGKATMTADSSSNTAYLQLSSLTSEDTAVYYCNAYYGDYEGYWGQGTTVTVSSGGGGSGGGGSGGGGSDIELTQSPAIMSASPGEKVTITCSASSSVSYMHWFQQKPGTSPKLWIYSTSNLASGVPARFSGSGSGTSYSLTISRMEAEDAATYYCQQRSSYPFTFGSGTKLEIK
Consider B1, for which the “EC50, antibody concentration that inhibited 50% of VEGF-stimulated mitogenesis of HUVEC ([3H]-TdR incorporation)” value in assay [1] is roughly 5 nM. Further, the “EC50 (read off the curve)” value in assay [2] was roughly 0.8 nM.

B2: chimeric anti-KDR antibody c-p1C11 (antibody, V domains shown)
VH: QVKLQQSGAELVGSGASVKLSCTTSGFNIKDFYMHWVKQRPEQGLEWIGWIDPENGDSDYAPKFQGKATMTADSSSNTAYLQLSSLTSEDTAVYYCNAYYGDYEGYWGQGTTVTVSS
VL: DIELTQSPAIMSASPGEKVTITCSASSSVSYMHWFQQKPGTSPKLWIYSTSNLASGVPARFSGSGSGTSYSLTISRMEAEDAATYYCQQRSSYPFTFGSGTKLEIK
notes: Bivalent chimeric IgG1/kappa with the mouse variable domains of p1C11; expressed in COS cells and purified on Protein G. The leader peptide added for secretion is not part of the mature protein; also called Chimeric-p1C11; c-p1C11 IgG
For the molecule B2, the “fold higher affinity than the parent scFv” value in assay [3] is roughly 2.5 fold.

For the origin of these results see US20020064528A1 (published 2002).
